T1: Murine CD117, soluble (MuCD117 1-527) (mouse, UniProt P05532 25-527)
T1 construct: Residues as printed
T1 sequence: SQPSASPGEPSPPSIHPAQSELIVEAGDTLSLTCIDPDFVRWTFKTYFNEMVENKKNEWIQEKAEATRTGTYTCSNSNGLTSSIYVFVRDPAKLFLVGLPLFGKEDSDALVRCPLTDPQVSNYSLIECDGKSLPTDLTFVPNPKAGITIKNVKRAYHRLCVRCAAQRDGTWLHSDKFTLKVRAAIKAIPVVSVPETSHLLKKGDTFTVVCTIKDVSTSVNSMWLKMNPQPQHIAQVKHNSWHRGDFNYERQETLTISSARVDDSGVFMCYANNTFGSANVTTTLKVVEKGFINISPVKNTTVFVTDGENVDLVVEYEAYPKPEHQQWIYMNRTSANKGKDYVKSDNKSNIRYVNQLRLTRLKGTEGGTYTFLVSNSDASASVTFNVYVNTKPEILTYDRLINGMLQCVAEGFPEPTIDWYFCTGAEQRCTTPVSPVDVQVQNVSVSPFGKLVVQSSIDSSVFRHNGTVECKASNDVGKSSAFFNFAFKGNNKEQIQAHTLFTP

T2: Cyno CD117, soluble (cynoCD117 1-520) (cynomolgus monkey, UniProt P10721 26-520 (human entry))
T2 construct: Residues as printed
T2 chain: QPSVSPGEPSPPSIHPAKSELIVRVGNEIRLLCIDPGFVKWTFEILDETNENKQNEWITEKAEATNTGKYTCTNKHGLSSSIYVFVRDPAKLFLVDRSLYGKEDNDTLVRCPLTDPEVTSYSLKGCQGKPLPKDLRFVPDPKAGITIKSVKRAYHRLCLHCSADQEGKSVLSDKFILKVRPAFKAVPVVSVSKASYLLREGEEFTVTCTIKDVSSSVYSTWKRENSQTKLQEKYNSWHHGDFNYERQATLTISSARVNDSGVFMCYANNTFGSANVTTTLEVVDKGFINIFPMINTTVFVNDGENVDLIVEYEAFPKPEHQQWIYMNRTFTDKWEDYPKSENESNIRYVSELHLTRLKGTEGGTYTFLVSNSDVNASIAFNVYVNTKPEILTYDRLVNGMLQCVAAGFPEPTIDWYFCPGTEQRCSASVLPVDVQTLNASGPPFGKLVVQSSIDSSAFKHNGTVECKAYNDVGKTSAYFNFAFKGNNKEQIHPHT

T3: Cynomolgus monkey CD117, expressed on HEK293FS cells (cynomolgus monkey, UniProt P10721 26-976 (human entry))
T3 construct: The construct transfected is not further described; also called cyno CD117
T3 chain: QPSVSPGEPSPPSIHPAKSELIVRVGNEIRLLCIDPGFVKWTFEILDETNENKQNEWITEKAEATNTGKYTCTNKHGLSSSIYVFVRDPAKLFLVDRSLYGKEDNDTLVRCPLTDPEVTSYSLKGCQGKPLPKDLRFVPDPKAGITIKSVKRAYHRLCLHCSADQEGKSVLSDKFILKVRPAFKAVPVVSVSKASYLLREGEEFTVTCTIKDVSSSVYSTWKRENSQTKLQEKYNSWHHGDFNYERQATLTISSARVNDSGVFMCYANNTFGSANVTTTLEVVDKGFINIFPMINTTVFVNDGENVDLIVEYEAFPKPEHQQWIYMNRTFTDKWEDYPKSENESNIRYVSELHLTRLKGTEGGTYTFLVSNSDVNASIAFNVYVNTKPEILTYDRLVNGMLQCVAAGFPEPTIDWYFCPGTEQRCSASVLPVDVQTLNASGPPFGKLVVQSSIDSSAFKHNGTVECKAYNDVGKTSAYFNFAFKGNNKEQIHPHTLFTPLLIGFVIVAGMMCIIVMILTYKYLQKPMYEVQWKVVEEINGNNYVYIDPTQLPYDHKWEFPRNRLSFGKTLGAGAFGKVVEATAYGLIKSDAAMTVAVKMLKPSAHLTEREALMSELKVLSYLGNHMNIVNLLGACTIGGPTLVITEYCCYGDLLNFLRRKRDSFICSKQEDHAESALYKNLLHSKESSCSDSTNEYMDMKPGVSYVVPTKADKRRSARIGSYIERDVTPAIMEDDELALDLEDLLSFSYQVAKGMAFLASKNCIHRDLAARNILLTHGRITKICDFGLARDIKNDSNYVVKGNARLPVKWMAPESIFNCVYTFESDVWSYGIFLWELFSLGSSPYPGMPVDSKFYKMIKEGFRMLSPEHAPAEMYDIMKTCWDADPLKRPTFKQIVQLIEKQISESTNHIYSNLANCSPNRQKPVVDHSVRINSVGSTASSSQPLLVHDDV

B1: hu3B3 IgG1 (hu3B3-hLG1) (antibody)
heavy: not shown
light: SYELTQPPSVSVSPGQTASITCSGDKVGAKYVFWYQQKPGQSPVLVVYQDNKRPSGIPERFSGSNSGNTATLTISGTQAMDEADYYCQAWDSSTALYVFGTGTKVTVLGQPKANPTVTLFPPSSEELQANKATLVCLISDFYPGAVTVAWKADGSPVKAGVETTKPSKQSNNKYAASSYLSLTPEQWKSHRSYSCQVTHEGSTVEKTVAPTECS
notes: Human IgG1, lambda
B2: hu3C2 IgG1 (hu3C2-hLG1) (antibody)
heavy: not shown
light: SYELTQDPAVSVALGQTVRITCQGDSLRDYYANWFQQKPGQAPLLVIFYDSDRPSGIPERFSGSNSGNTATLTISRVEAGDEADYYCQAWDSSSDHWVFGGGTKLTVLGQPKAAPSVTLFPPSSEELQANKATLVCLISDFYPGAVTVAWKADGSPVKAGVETTKPSKQSNNKYAASSYLSLTPEQWKSHRSYSCQVTHEGSTVEKTVAPTECS
notes: Human IgG1, lambda
B3: hu4A2 IgG1 (hu4A2-hKG1) (antibody)
heavy: not shown
light: EIVLTQSPGTLSLSPGKRATLSCRASQSVSNSYLAWYQQKPGQPPKLLIYWASTRESGVPDRFSGSGSGTDFTLTISSLQAEDVAVYYCQQYYSTPLTFGGGTKVEIKRTVAAPSVFIFPPSDEQLKSGTASVVCLLNNFYPREAKVQWKVDNALQSGNSQESVTEQDSKDSTYSLSSTLTLSKADYEKHKVYACEVTHQGLSSPVTKSFNRGEC
notes: Human IgG1, kappa; also called hu4Aa
B4: hu3B2 IgG1 (hu3B2-hLG1) (antibody)
heavy: not shown
light: SYELTQPPSVSVSPGQTATITCSGDKLGETYVHWYQHQSGQSPILVVYQDFKRPSGIPERFSGSNSGNTATLTISGTQAMDEADYYCQAWDSSTAVFGGGTKLTVLGQPKAAPSVTLFPPSSEELQANKATLVCLISDFYPGAVTVAWKADGSPVKAGVETTKPSKQSNNKYAASSYLSLTPEQWKSHRSYSCQVTHEGSTVEKTVAPTECS
notes: Human IgG1, lambda
B5: hu4A2 IgA2 (hu4A2-hKhA2 (P221R)) (antibody)
heavy: EVQLLESGGGLVQPGGSLRLSCAASGFTFSDYGMSWVRQAPGKGLEWVSAIGYGGGGKYYADSVKGRFTISRDNSKNTLYLQMNSLRAEDTAVYYCAKDTWWLAGLFDYWGQGTLVTVSSASPTSPKVFPLSLDSTPQDGNVVVACLVQGFFPQEPLSVTWSESGQNVTARNFPPSQDASGDLYTTSSQLTLPATQCPDGKSVTCHVKHYTNSSQDVTVPCRVPPPPPCCHPRLSLHRPALEDLLLGSEANLTCTLTGLRDASGATFTWTPSSGKSAVQGPPERDLCGCYSVSSVLPGCAQPWNHGETFTCTAAHPELKTPLTANITKSGNTFRPEVHLLPPPSEELALNELVTLTCLARGFSPKDVLVRWLQGSQELPREKYLTWASRQEPSQGTTTFAVTSILRVAAEDWKKGDTFSCMVGHEALPLAFTQKTIDRLAGKPTHVNVSVVMAEVDGTCY
light: B3 light
B6: hu3B2 IgA2 (hu3B2-hLhA2 (P221R)) (antibody)
heavy: QVQLQESGPGLVKPSETLSLTCTVSGYSISSGYYWGWIRQPPGKGLEWIGSIYHSGSTYYNPSLKSRVTISVDTSKNQFSLKLSSVTAADTAVYYCARVGVRYFDWLLYGAFDIWGQGTMVTVSSASPTSPKVFPLSLDSTPQDGNVVVACLVQGFFPQEPLSVTWSESGQNVTARNFPPSQDASGDLYTTSSQLTLPATQCPDGKSVTCHVKHYTNSSQDVTVPCRVPPPPPCCHPRLSLHRPALEDLLLGSEANLTCTLTGLRDASGATFTWTPSSGKSAVQGPPERDLCGCYSVSSVLPGCAQPWNHGETFTCTAAHPELKTPLTANITKSGNTFRPEVHLLPPPSEELALNELVTLTCLARGFSPKDVLVRWLQGSQELPREKYLTWASRQEPSQGTTTFAVTSILRVAAEDWKKGDTFSCMVGHEALPLAFTQKTIDRLAGKPTHVNVSVVMAEVDGTCY
light: B4 light

Columns and labels:
[1] = molecular target: T1, Murine CD117, soluble (MuCD117 1-527); assay: SPR, captured antibody, soluble CD117 analyte
Method: (§1) Biacore 4000 was used for all binding analyses. Experiments were performed at pH 7.3, 37° C. and under flow rate of 30 μL/min. Human anti-CD117 antibodies were surface captured using either polyclonal goat anti-human IgG or IgA antibodies directly immobilised onto the carboxymethyl dextran surface of CM5 sensorchips to approximately 13,000 RU using standard NHS/EDC chemistry at pH 5. The immobilised antibody surface was pre-conditioned with ten injections of human polyclonal IgG (Privigen 60s, 10 μg/mL) each followed by a regeneration cycle with 100 mM H3PO4.
(§2) A total of 18 anti-CD117 antibodies (2 μg/mL) were tested as captured ligands against four soluble mammalian CD117 receptor variants: the N-terminal domain of human CD117 (HuCD1₁₇₁₋₃₀₈), full length human CD117 (HuCD1₁₇₁₋₅₂₄), cyno CD117 (cynoCD117₁₋₅₂₀), and murine CD117 (MuCD117₁₋₅₂₇).
(§3) CD117 proteins were prepared in two-fold dilutions ranging from 0.8 to 200 nM. Anti-CD117 antibodies huAb249, huAb85, huCK6 and huhzSR1 were used as positive controls. BM4 was prepared in an IgG and IgA2 format and used as negative control. Binding affinities were calculated from sensorgrams double-referenced using reference surface and blank buffer injection data gathered within each experiment.

[2] = molecular target: N-terminal domain of human CD117, soluble (HuCD117 1-308) (human, UniProt P10721 26-308); assay: SPR Biacore 4000, captured antibody, soluble CD117 analyte, 1:1 fit;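 note: antibodies captured on CM5 chips via goat anti-human IgG or IgA, CD117 analyte in two-fold series 0.8–200 nM, run at pH 7.3 and 37 °C, double-referenced sensorgrams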
Method: as §1, §2, §3

[3] = molecular target: T4, Full length human CD117, soluble (HuCD117 1-524) (human, UniProt P10721 26-524); assay: as above
T4 construct: also called full-length protein
Method: as §1, §2, §3

[4] = molecular target: T2, Cyno CD117, soluble (cynoCD117 1-520); assay: as above
Method: as §1, §2, §3

[5] = molecular target: T5, Human CD117 (c-kit), cell-surface expressed (human, UniProt P10721 26-976); assay: flow cytometry on TF-1 cells, IgG1 format, anti-human IgG Fab-AF488, total binding
T5 construct: also called hCD117; SCFR
Method: (§4) After a one hour incubation on ice, cells were washed once prior to fixation.
(§5) Mean fluorescence intensities (MFI) were obtained using Flowjo v10 and analysed using GraphPad Prism. Total binding curves for TF-1 cells and specific binding curves for HEK293FS expressing CD117 (generated by subtracting non-specific binding to parental cells) were plotted. EC50 values for each anti-CD117-IgG1 antibody tested was determined using a non-linear regression model.

[6] = molecular target: T3, Cynomolgus monkey CD117, expressed on …; assay: flow cytometry on HEK293FS cells expressing cynomolgus CD117, IgG1 format, signal of parental cells subtracted [F]
Method: as §4, §5

[7] = molecular target: T5, Human CD117 (c-kit), cell-surface …; assay: flow cytometry on HEK293FS cells expressing human CD117, IgG1 format, signal of parental cells subtracted
Method: as §4, §5

[8] = molecular target: T3, Cynomolgus monkey CD117, expressed on …; assay: flow cytometry on HEK293FS cells expressing cynomolgus CD117, IgG1 format, signal of parental cells subtracted
Method: as §4, §5

[9] = molecular target: T1, Murine CD117, soluble (MuCD117 1-527); assay: SPR Biacore 4000, captured antibody, soluble CD117 analyte
Method: as §1, §2, §3

[10] = molecular target: T6, Mouse CD117, expressed on HEK293FS cells (mouse, UniProt P05532 25-979); assay: flow cytometry on HEK293FS cells expressing mouse CD117, IgG1 format, signal of parental cells subtracted
T6 construct: The construct transfected is not further described; also called murine CD117
Method: as §4, §5

[11] = molecular target: T4, Full length human CD117, soluble …; assay: SPR Biacore 4000, captured antibody, soluble CD117 analyte
Method: as §1, §2, §3

[12] = molecular target: T2, Cyno CD117, soluble (cynoCD117 1-520); assay: as above
Method: as §1, §2, §3

T4 sequence (P10721 26-524): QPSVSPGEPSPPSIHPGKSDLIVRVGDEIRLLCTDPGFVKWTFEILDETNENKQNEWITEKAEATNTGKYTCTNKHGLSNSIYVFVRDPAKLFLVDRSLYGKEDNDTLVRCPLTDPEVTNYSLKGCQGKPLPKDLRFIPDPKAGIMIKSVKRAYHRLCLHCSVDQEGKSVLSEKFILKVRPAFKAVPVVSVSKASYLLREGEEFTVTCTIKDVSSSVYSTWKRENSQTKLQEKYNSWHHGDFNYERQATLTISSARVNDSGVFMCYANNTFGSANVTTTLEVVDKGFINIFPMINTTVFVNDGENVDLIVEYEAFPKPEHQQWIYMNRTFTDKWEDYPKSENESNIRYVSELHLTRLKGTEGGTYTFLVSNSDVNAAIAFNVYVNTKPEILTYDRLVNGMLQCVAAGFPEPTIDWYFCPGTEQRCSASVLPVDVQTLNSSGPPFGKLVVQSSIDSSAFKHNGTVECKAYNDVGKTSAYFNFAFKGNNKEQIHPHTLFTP
Chain of N-terminal domain of human CD117, soluble (HuCD117 1-308) (P10721 26-308): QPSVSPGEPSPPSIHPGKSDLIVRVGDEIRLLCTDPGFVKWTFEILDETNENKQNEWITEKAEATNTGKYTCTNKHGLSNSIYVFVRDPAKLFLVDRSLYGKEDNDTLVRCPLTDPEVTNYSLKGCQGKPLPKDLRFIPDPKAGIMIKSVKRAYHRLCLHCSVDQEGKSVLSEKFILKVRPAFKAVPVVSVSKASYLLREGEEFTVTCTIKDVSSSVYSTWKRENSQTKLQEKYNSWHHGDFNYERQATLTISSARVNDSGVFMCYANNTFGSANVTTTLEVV

Binder	binding result [1]	Kd [2] [nM]	Kd [3] [nM]	Kd [4] [nM]	EC50 (read off the curve) [5] [nM]	binding result [6]	EC50 (read off the curve) [7] [nM]	EC50 (read off the curve) [8] [nM]	Kd [9] [nM]	EC50 (read off the curve) [10] [nM]	fold gain in affinity (IgA2 backbone vs IgG1 or IgG4) [11] [fold]	fold gain in affinity (IgA2 backbone vs IgG1 or IgG4) [12] [fold]
B1	no binding (tested: 200 nM (highest CD117 concentration))	1.07	4.2	5.7	~0.04	binds						
B2	no binding (tested: 200 nM (highest CD117 concentration))	4.14	14.4	33.7	~0.2		~0.4	~0.3				
B3		14.4	32.4	34.6	~0.2		~0.5	~0.3				
B4			54.6	58.7					> 1000	~0.3		
B5		8.61	18.6	3							~2	~10
B6			35.9	39.9					> 1000			

Reference: patent publication US20250171536A1 (CSL INNOVATION, published 2025)
